Where “and” joins values, the source holds several entries; their conditions need not be identical. Equal entries are not always repeated. One block for each binder: values may come before it.
What was measured:
[1] = molecular target: CD22/FC (Siglec-2 ECD/FC chimera) (UniProt P20273 20-687); experiment: Direct Bind ELISA, antigen on plate
[2] = molecular target: T1, CD-19 (UniProt P15391 20-291, limits assumed); experiment: Direct Bind ELISA, antigen on plate; N-terminal VD
T1 construct: construct unknown
T1 sequence (looked up): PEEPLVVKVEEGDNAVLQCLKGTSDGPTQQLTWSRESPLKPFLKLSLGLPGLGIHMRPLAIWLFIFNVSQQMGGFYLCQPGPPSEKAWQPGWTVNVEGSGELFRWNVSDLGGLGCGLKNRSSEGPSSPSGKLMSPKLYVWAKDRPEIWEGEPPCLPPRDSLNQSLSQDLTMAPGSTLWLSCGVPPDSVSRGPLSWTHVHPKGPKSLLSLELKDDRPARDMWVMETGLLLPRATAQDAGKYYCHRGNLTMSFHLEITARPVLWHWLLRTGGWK

[3] = molecular target: T2, CD40/FC (CD40 ECD/FC chimera-His tag) (UniProt P25942 21-193, limits assumed); experiment: Direct Bind ELISA, antigen on plate
T2 construct: extracellular domain; Bought reagent

[4] = molecular target: T1, CD-19; experiment: Direct Bind ELISA, antigen on plate; C-terminal VD
[5] = molecular target: T3, NRP1 (UniProt O14786 22-923, limits assumed); experiment: flow cytometry on cells carrying the target, 2 ug/mL; parent antibody
T3 construct: whole, on cells; also called neuropilin 1

[6] = molecular target: T4, VEGF (VEGF 1-165 aa, R&D Systems 293-VE-010) (UniProt P15692 27-191); experiment: Direct bind ELISA, VEGF coated on plate; reference antibody printed beside DVD498
T4 construct: bought reagent; also called vascular endothelial growth factor

[7] = molecular target: T4, VEGF (VEGF 1-165 aa, R&D Systems …); experiment: Direct bind ELISA, VEGF coated on plate; reference antibody printed beside DVD497
[8] = molecular target: T4, VEGF (VEGF 1-165 aa, R&D Systems …); experiment: Direct bind ELISA, VEGF coated on plate; reference antibody printed beside DVD509
[9] = molecular target: T4, VEGF (VEGF 1-165 aa, R&D Systems …); experiment: Direct bind ELISA, VEGF coated on plate; reference antibody printed beside DVD492
[10] = molecular target: T4, VEGF (VEGF 1-165 aa, R&D Systems …); experiment: Direct bind ELISA, VEGF coated on plate; reference antibody printed beside DVD491
[11] = molecular target: T4, VEGF (VEGF 1-165 aa, R&D Systems …); experiment: Direct bind ELISA, VEGF coated on plate; reference antibody printed beside DVD503
[12] = molecular target: T4, VEGF (VEGF 1-165 aa, R&D Systems …); experiment: Direct bind ELISA, VEGF coated on plate; reference antibody printed beside DVD504
[13] = molecular target: T4, VEGF (VEGF 1-165 aa, R&D Systems …); experiment: Direct bind ELISA, VEGF coated on plate; reference antibody printed beside DVD510
[14] = molecular target: T5, VEGF (UniProt P15692 27-191, limits assumed); experiment: direct bind ELISA, reference antibody
T5 construct: bought antigen coated on the ELISA plate

[15] = molecular target: T6, RON (MSP Receptor ECD-His tag, R&D Systems 1947-MS-050) (UniProt Q04912 25-957, limits assumed); experiment: Direct bind ELISA on RON; reference antibody
T6 construct: extracellular domain; not shown: His tag

[16] = molecular target: T7, DLL4 (human, UniProt Q9NR61 27-685); experiment: flow cytometry on cells carrying the target, 2 ug/mL; parent antibody
T7 construct: whole, on cells; also called human DLL4

[17] = molecular target: T7, DLL4; experiment: flow cytometry on 293G-human DLL4 cells; reference antibody
[18] = molecular target: T2, CD40/FC (CD40 ECD/FC chimera-His tag); experiment: Direct Bind ELISA, antigen on plate; C-terminal VD
[19] = molecular target: T8, DLL4 ECD/His tag (R&D 1506-D4-050) (UniProt Q9NR61 27-529); experiment: direct bind ELISA, DLL4 on plate; reference antibody
T8 construct: extracellular domain; Bought antigen coated on the ELISA plate; not shown: His tag

[20] = molecular target: CD80/FC (B7-1 ECD/FC chimera) (UniProt P33681 35-242); experiment: Direct Bind ELISA, antigen on plate
CD80/FC (B7-1 ECD/FC chimera), sequence (P33681 35-242, change not shown): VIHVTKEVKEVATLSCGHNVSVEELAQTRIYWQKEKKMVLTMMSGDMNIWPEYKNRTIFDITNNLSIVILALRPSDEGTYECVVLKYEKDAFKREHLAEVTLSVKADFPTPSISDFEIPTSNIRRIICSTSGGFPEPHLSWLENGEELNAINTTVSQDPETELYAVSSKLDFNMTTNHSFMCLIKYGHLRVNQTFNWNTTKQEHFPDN

T4 sequence (P15692 other isoform, or with tags, fused parts or gaps limits assumed): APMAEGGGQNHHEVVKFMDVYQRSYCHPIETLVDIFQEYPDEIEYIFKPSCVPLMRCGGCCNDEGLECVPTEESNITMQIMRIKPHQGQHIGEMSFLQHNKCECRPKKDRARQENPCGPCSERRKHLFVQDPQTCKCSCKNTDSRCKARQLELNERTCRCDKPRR
T2 sequence (P25942 21-193 limits assumed, change not shown): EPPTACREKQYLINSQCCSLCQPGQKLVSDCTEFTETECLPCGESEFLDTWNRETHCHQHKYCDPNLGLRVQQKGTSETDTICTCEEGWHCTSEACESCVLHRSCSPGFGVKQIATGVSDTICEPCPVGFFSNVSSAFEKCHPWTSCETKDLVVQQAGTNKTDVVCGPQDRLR
T5 sequence (P15692 other isoform, or with tags, fused parts or gaps limits assumed): as the sequence (P15692 other isoform, or with tags, fused parts or gaps limits assumed) above

B1: AB008 (anti-CD-22 parent antibody) (antibody, IgG1, V domains shown)
VH: QVQLVQSGAEVKKPGSSVKVSCKASGYTFTSYWLHWVRQAPGQGLEWIGYINPRNDYTEYNQNFKDKATITADESTNTAYMELSSLRSEDTAFYFCARRDITTFYWGQGTTVTVSS
VL: DIQLTQSPSSLSASVGDRVTMSCKSSQSVLYSANHKNYLAWYQQKPGKAPKLLIYWASTRESGVPSRFSGSGSGTDFTFTISSLQPEDIATYYCHQYLSSWTFGGGTKLEIKR
notes: HC vector V1 (wild-type hIgG1 constant), LC vector V2 (kappa constant); also called AB008VH; AB008VL
EC50 [1]: 3.44 nM

B3: AB009 (anti-CD-40 parent antibody) (antibody, IgG1, V domains shown)
VH: QVQLVESGGGVVQPGRSLRLSCAASGFTFSSYGMHWVRQAPGKGLEWVAVISYEESNRYHADSVKGRFTISRDNSKITLYLQMNSLRTEDTAVYYCARDGGIAAPGPDYWGQGTLVTVSS
VL: DIVMTQSPLSLTVTPGEPASISCRSSQSLLYSNGYNYLDWYLQKPGQSPQVLISLGSNRASGVPDRFSGSGSGTDFTLKISRVEAEDVGVYYCMQARQTPFTFGPGTKVDIRR
notes: HC vector V1 (wild-type hIgG1 constant), LC vector V2 (kappa constant); also called AB009VH; AB009VL
EC50 [3]: 0.99 nM

B5: AB016 (antibody, human IgG1, kappa, V domains shown)
VH: EVQLVESGGGLVQPGGSLRLSCAASGFSFSSEPISWVRQAPGKGLEWVSSITGKNGYTYYADSVKGRFTISADTSKNTAYLQMNSLRAEDTAVYYCARWGKKVYGMDVWGQGTLVTVSS
VL: DIQMTQSPSSLSASVGDRVTITCRASQSISSYLAWYQQKPGKAPKLLIYGASSRASGVPSRFSGSGSGTDFTLTISSLQPEDFATYYCQQYMSVPITFGQGTKVEIKR
notes: Parent antibody
FACS Geometric Mean [5]: 338

B8: AB005 (anti-RON (seq. 1) parent antibody) (antibody, human IgG1, V domains shown)
VH: EVQLVQSGGGLVKPGGSLRLSCAASGFTFSSYAMHWVRQAPGKGLEWVAVISYDGSNKYYADSVKGRFTISRDNSKNTLYLQMNSLRAEDTAVYYCARFSGWPNNYYYYGMDVWGQGTTVTVSS
VL: DVVMTQSPLSLPVTPGEPASISCRSSQSLLHSNGFNYVDWYLQKPGQSPHLLIYFGSYRASGVPDRFSGSGSGTDFTLKISRVEAEDVGVYYCMQALQTPPWTFGQGTKVEIRR
notes: also called AB005VH; AB005VL
EC50 [15]: 0.26 nM and 0.69 nM

B9: AB015 (antibody, human IgG1, kappa)
heavy: not shown
light: DIQMTQSPSSLSASVGDRVTITCRASQDVSTAVAWYQQKPGKAPKLLIYSASFLYSGVPSRFSGSGSGTDFTLTISSLQPEDFATTYYCQQSYTGTVTFGQGTKVEIKRTVAAPSVFIFPPSDEQLKSGTASVVCLLNNFYPREAKVQWKVDNALQSGNSQESVTEQDSKDSTYSLSSTLTLSKADYEKHKVYACEVTHQGLSSPVTKSFNRGEC
notes: Parent antibody; also called AB015
FACS Geometric Mean [16]: 308
EC50 [17]: 0.5 nM

B12: AB007 (anti-CD-80 parent antibody) (antibody, IgG1, V domains shown)
VH: QVQLQESGPGLVKPSETLSLTCAVSGGSISGGYGWGWIRQPPGKGLEWIGSFYSSSGNTYYNPSLKSQVTISTDTSKNQFSLKLNSMTAADTAVYYCVRDRLFSVVGMVYNNWFDVWGPGVLVTVSS
VL: ESALTQPPSVSGAPGQKVTISCTGSTSNIGGYDLHWYQQLPGTAPKLLIYDINKRPSGISDRFSGSKSGTAASLAITGLQTEDEADYYCQSYDSSLNAQVFGGGTRLTVLG
notes: HC vector V1 (wild-type hIgG1 constant), LC vector V3 (lambda constant); also called AB007VH; AB007VL
EC50 [20]: 0.77 nM

The remaining lines, values ahead:

EC50 [2]: 0.07 nM
B2: DVD002 (CD-19 and CD-20 DVD-Ig) (bispecific antibody, IgG1)
VH: QVQLQQSGAELVRPGSSVKISCKASGYAFSSYWMNWVKQRPGQGLEWIGQIWPGDGDTNYNGKFKGKATLTADESSSTAYMQLSSLASEDSAVYFCARRETTTVGRYYYAMDYWGQGTSVTVSSASTKGPQVQLQQPGAELVKPGASVKMSCKASGYTFTSYNMHWVKQTPGRGLEWIGAIYPGNGDTSYNQKFKGKATLTADKSSSTAYMQLSSLTSEDSAVYYCARSTYYGGDWYFNVWGAGTTVTVSA
VL: DILLTQTPASLAVSLGQRATISCKASQSVDYDGDSYLNWYQQIPGQPPKLLIYDASNLVSGIPPRFSGSGSGTDFTLNIHPVEKVDAATYHCQQSTEDPWTFGGGTKLEIKRTVAAPQIVLSQSPAILSPSPGEKVTMTCRASSSVSYIHWFQQKPGSSPKPWIYATSNLASGVPVRFSGSGSGTSYSLTISRVEAEDAATYYCQQWTSNPPTFGGGTKLEIKR
notes: Outer AB006, inner AB001; HC vector V1 (wild-type hIgG1 constant), LC vector V2 (kappa constant); also called DVD002H; DVD002L

EC50 [4]: 12.9 nM
B4: DVD001 (CD-20 and CD-19 DVD-Ig) (bispecific antibody, IgG1)
VH: QVQLQQPGAELVKPGASVKMSCKASGYTFTSYNMHWVKQTPGRGLEWIGAIYPGNGDTSYNQKFKGKATLTADKSSSTAYMQLSSLTSEDSAVYYCARSTYYGGDWYFNVWGAGTTVTVSAASTKGPQVQLQQSGAELVRPGSSVKISCKASGYAFSSYWMNWVKQRPGQGLEWIGQIWPGDGDTNYNGKFKGKATLTADESSSTAYMQLSSLASEDSAVYFCARRETTTVGRYYYAMDYWGQGTSVTVSS
VL: QIVLSQSPAILSPSPGEKVTMTCRASSSVSYIHWFQQKPGSSPKPWIYATSNLASGVPVRFSGSGSGTSYSLTISRVEAEDAATYYCQQWTSNPPTFGGGTKLEIKRTVAAPDILLTQTPASLAVSLGQRATISCKASQSVDYDGDSYLNWYQQIPGQPPKLLIYDASNLVSGIPPRFSGSGSGTDFTLNIHPVEKVDAATYHCQQSTEDPWTFGGGTKLEIKR
notes: Outer AB001, inner AB006; HC vector V1 (wild-type hIgG1 constant), LC vector V2 (kappa constant); also called DVD001H; DVD001L

EC50 [6]: 45.7 nM
EC50 [7]: 45.7 nM
EC50 [8]: 37.8 nM
EC50 [9]: 45.7 nM
EC50 [10]: 45.7 nM
EC50 [11]: 37.8 nM
EC50 [12]: 37.8 nM
EC50 [13]: 37.8 nM
B6: AB071 (antibody, human IgG1, kappa, L234A L235A, V domains shown)
VH: EVQLVESGGGLVQPGGSLRLSCAASGFTINASWIHWVRQAPGKGLEWVGAIYPYSGYTNYADSVKGRFTISADTSKNTAYLQMNSLRAEDTAVYYCARWGHSTSPWAMDYWGQGTLVTVSS
VL: DIQMTQSPSSLSASVGDRVTITCRASQVIRRSLAWYQQKPGKAPKLLIYAASNLASGVPSRFSGSGSGTDFTLTISSLQPEDFATYYCQQSNTSPLTFGQGTKVEIKR
notes: Parent anti-VEGF antibody

EC50 [14]: 35.4 nM and 26.6 nM
B7: AB071 (antibody, human IgG1, kappa, L234A L235A, V domains shown)
VH: B6 VH
VL: B6 VL

EC50 [18]: 3.55 nM
B10: DVD009 (CD-20 and CD-40 DVD-Ig) (bispecific antibody, IgG1)
VH: QVQLQQPGAELVKPGASVKMSCKASGYTFTSYNMHWVKQTPGRGLEWIGAIYPGNGDTSYNQKFKGKATLTADKSSSTAYMQLSSLTSEDSAVYYCARSTYYGGDWYFNVWGAGTTVTVSAASTKGPQVQLVESGGGVVQPGRSLRLSCAASGFTFSSYGMHWVRQAPGKGLEWVAVISYEESNRYHADSVKGRFTISRDNSKITLYLQMNSLRTEDTAVYYCARDGGIAAPGPDYWGQGTLVTVSS
VL: QIVLSQSPAILSPSPGEKVTMTCRASSSVSYIHWFQQKPGSSPKPWIYATSNLASGVPVRFSGSGSGTSYSLTISRVEAEDAATYYCQQWTSNPPTFGGGTKLEIKRTVAAPDIVMTQSPLSLTVTPGEPASISCRSSQSLLYSNGYNYLDWYLQKPGQSPQVLISLGSNRASGVPDRFSGSGSGTDFTLKISRVEAEDVGVYYCMQARQTPFTFGPGTKVDIRR
notes: Outer AB001, inner AB009; HC vector V1 (wild-type hIgG1 constant), LC vector V2 (kappa constant); also called DVD009H; DVD009L

EC50 [19]: 1.29 nM and 0.7 nM and 1.99 nM and 1.85 nM
B11: AB072 (antibody, human IgG1, kappa, V domains shown)
VH: EVQLQQSGPELVKPGASVKMSCKASGYTFTSYVINWVKQKPGQGLEWIGLINPYNDGTKYNEKFKVKATLTSDKSSSTAYMELSSLTSEDSAVYYCASYYYGSRYYFDYWGQGTTLTVSS
VL: DIQMTQSSSYLSVSLGGRVTITCKASDHINNWLAWYQQKPGNAPRLLISGATSLETGVPSRFSGSGSGKDYTLSITSLQTEDVATYYCQQYWSIPLTFGAGTKLELKR
notes: also called AB072-DLL-4

Source: US20100260668A1 (published 2010)
